Like-named read-outs stand apart in the source and are kept apart here.
Experiments:
[1] = molecular target: T1, cyno SIRPγ ECD recombinant protein (cyno); experiment: ELISA, cyno SIRPγ ECD
T1 construct: extracellular domain

[2] = molecular target: Human SIRPα v1 (antigen of the Octet and Biacore affinity measurements) (human, UniProt P78324 31-370, limits assumed); experiment: BLI (Octet), 1:1 binding model
Experimental: The purified chimeric antibodies were characterized for binding affinity against human SIRPα v1, human SIRPα v2 using Bio-Layer Interferometry technology (Octet system). The association and dissociation curves were fit with 1:1 binding model, and the Ka/Kd/KD values for each antibody were calculated.

[3] = molecular target: T2, human SIRPα v1 ECD recombinant protein (tag not given) (human, UniProt P78324 31-373); experiment: competitive ELISA, mFc-CD47 ECD on coated SIRPα v1 ECD
T2 construct: extracellular domain; also called biotin labeled soluble human SIRPα v1 ECD recombinant protein; ELISA microplate coated human SIRPα v1 ECD
Experimental: (§1) Competitive ELISA assay was used to determine whether the purified chimeric antibodies can block CD47 and SIRPα interaction. Briefly, antibody and mFc tagged human CD47 ECD recombinant protein were co-incubated with ELISA microplate coated human SIRPα v1 ECD (FIGS. 6A and 6B) or human SIRPα v2 ECD (FIGS. 7A and 7B) recombinant protein. After washing, HRP labeled anti-mouse Fc 2nd antibody (Sigma) was added and incubated at 37° C. for 1 hour. Then, 100 μl/well of TMB solution (Biotechnology) was added. After incubation for 15 minutes at room temperature, the reaction was stopped by the addition of 50 μl of 1N HCl. OD 450 nm was read. Blocking ratio was determined by blockade of human CD47 ECD recombinant protein binding to ELISA microplate coated human SIRPα ECD recombinant protein. Other than 005, all antibodies as tested can block interaction between human CD47 and different human SIRPα variants.

[4] = molecular target: T2, human SIRPα v1 ECD recombinant protein …; experiment: competitive ELISA, coated human SIRPα v1 ECD, blocked ligand mFc tagged human CD47 ECD
Experimental: as §1

[5] = molecular target: T3, human SIRPβL ECD recombinant protein (6×His tagged) (human, UniProt Q5TFQ8 30-371); experiment: ELISA, recombinant human SIRPβL (SIRPβI) ECD
T3 construct: given variously as SIRPBL, SIRPBI and SIRPβI; Bought from Biointron; also called human SIRPBL ECD; human SIRPBI ECD
Excerpt: Binding activity of the purified chimeric antibodies against SIRPβ and SIRPBI was detected by ELISA assay using recombinant proteins of human SIRPβ ECD (FIGS. 3A and 3B), human SIRPBI ECD (FIGS. 3D and 3E) and FACS assay using CHOK 1 cells stably expressing human SIRPB (FIG. 3C).

[6] = molecular target: T4, C57BL/6 mouse SIRPα ECD recombinant protein (6×His tagged) (C57BL/6 mouse, UniProt P97797 32-373); experiment: ELISA, recombinant C57BL/6 mouse SIRPα ECD
T4 construct: extracellular domain; Bought from Biointron; not shown: 6×His tag
T4 sequence (looked up): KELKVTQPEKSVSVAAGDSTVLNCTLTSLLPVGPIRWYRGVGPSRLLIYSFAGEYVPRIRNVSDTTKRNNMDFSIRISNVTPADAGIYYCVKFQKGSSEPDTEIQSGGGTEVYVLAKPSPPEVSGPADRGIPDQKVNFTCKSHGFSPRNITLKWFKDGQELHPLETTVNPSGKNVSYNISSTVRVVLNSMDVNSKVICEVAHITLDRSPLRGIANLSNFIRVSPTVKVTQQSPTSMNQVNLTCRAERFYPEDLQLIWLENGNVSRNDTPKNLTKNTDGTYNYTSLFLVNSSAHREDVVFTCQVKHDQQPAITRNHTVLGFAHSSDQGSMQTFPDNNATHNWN
Excerpt: Species cross reactivity of purified chimeric antibodies was detected by ELISA assay using recombinant protein of C57BL/6 mouse SIRPα ECD (FIG. 5A) and FACS assay using CHOK 1 cells stably expressing cyno SIRPα (FIGS. 5B and 5C). All antibodies as tested bind to cyno SIRPα at different levels but have no species cross reactivity against C57BL/6 mouse SIRPα.

[7] = molecular target: T5, full length human SIRPα v1 with a small beta-gal fragment (ED) fused to its C-terminal, expressed in K562 … (human, UniProt P78324 31-504); experiment: cell-based or functional assay
[8] = molecular target: T6, full length human SIRPα v1 stably expressed on CHOK1 or 293F cells (human, UniProt P78324 31-504); experiment: FACS, CHOK1-hSIRPα v1 cells
T6 construct: whole, on cells; also called CHOK1-human SIRPα v1; CHOK1-hSIRPα v1
Excerpt: (§2) All the humanized antibodies as tested were confirmed to retain the similar activity as the parental antibody of 025c to bind to SIRP family members.

[9] = molecular target: T5, full length human SIRPα v1 with a small …; experiment: cell-based or functional assay; remark: listed apart in the source
[10] = molecular target: T7, human SIRPγ stably expressed on 293F cells (human, UniProt Q9P1W8 29-387); experiment: FACS, 293F-hSIRPγ cells
T7 construct: whole, on cells
Excerpt: as §2

[11] = molecular target: T8, mFc tagged human SIRPα v1 ECD recombinant protein (human, UniProt P78324 31-373); experiment: competitive ELISA binning, mFc-SIRPα v1 ECD; competitor 025c
T8 construct: extracellular domain; Bought from Biointron; not shown: mouse IgG Fc (mFc) tag
Experimental: Competitive ELISA assay was used for epitope binning of purified chimeric antibodies. Briefly excessive competitor antibody and mFc tagged human SIRPα v1 ECD recombinant protein were co-incubated with ELISA microplate coated antibody. After washing, HRP labeled anti-mouse Fc 2nd antibody (Sigma) was added and incubated at 37° C. for 1 hour. Then, 100 μl/well of TMB solution (Biotechnology) was added. After incubation for 15 minutes at room temperature, the reaction was stopped by the addition of 50 μl of 1N HCl. OD 450 nm was read. Competition ratio was calculated. The antibodies that can compete each other for binding to SIRPα may have related binding epitopes.

Sequence of Human SIRPα v1 (antigen of the Octet and Biacore affinity measurements) (P78324 31-370 limits assumed): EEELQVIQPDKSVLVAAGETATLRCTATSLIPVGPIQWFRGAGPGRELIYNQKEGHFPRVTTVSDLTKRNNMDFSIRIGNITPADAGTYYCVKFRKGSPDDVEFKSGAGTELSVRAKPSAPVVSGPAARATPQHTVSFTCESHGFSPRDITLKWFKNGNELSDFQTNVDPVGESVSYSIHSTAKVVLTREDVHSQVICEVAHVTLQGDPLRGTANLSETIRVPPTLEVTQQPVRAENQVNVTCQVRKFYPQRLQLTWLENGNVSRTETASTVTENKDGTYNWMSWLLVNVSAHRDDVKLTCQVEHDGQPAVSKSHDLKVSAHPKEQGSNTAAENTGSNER
T5 sequence (P78324 31-504): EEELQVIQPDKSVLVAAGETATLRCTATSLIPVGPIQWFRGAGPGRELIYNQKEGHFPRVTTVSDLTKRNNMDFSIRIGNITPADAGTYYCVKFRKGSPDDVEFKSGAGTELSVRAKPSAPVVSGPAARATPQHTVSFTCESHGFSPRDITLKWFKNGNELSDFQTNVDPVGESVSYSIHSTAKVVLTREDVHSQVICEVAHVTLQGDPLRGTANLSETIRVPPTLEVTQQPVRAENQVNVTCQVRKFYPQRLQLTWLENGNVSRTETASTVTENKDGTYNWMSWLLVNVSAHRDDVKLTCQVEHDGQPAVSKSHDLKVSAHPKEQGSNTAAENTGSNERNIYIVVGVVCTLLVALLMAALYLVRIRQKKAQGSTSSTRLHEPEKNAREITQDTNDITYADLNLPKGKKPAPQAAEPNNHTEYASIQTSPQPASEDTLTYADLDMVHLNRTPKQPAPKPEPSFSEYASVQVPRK
T2 sequence (P78324 31-373): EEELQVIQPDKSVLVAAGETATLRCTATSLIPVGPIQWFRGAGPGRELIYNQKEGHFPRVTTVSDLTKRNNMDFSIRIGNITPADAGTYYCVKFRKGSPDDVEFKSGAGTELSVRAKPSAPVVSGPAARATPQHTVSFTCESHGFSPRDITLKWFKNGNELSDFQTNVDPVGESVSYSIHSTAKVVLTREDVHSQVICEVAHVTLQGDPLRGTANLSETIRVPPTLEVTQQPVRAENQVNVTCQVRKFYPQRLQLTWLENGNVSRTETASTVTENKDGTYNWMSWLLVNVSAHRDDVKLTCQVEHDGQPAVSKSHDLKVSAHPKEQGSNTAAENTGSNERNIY
T6 sequence (P78324 31-504): as the sequence (P78324 31-504) above
T7 sequence (Q9P1W8 29-387): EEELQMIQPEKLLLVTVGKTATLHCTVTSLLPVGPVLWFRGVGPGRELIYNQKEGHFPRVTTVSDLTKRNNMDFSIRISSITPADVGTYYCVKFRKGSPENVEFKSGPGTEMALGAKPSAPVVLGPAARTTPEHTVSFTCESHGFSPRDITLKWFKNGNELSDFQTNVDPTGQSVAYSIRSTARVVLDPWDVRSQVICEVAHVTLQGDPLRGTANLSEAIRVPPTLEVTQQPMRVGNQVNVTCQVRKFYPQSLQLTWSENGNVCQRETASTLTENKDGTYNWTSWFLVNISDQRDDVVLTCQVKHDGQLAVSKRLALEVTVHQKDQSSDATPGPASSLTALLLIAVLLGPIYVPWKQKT
T3 sequence (Q5TFQ8 30-371 limits assumed): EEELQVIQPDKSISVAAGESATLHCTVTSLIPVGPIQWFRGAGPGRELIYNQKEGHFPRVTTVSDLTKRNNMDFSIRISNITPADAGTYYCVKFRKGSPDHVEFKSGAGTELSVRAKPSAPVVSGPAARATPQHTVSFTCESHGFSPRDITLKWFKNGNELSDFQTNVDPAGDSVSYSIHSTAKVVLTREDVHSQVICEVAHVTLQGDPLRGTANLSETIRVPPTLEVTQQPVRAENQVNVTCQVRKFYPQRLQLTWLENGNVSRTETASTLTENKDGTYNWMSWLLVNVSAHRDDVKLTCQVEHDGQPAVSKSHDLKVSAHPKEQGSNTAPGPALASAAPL
T8 sequence (P78324 31-373): as the sequence (P78324 31-373) above

EC50 [1]: 0.36 nM | TOP OD450 [1]: 3.07 OD450 | Kd [2]: 2.46 nM | koff [2]: 0.00156 s⁻¹ | kon [2]: 636000 M⁻¹ s⁻¹ | IC50 [3]: 2.12 nM | TOP blocking (%) [3]: 96.5% | IC50 (read off the curve) [4]: 2 to 3 nM | EC50 (read off the curve) [5]: ~0.4 nM | binding result [6]: no binding | SHP-1 recruitment blocking, IC50 [7]: 0.08 nM | SHP-1 recruitment blocking, TOP blocking (%) [7]: 87% | EC50 [8]: 1.22 nM | TOP MFI [8]: 64700 MFI | SHP-1 recruitment blocking, IC50 [9]: 0.28 nM | SHP-1 recruitment blocking, TOP blocking (%) [9]: 84.5% | EC50 [10]: 0.2 nM | TOP MFI [10]: 22800 MFI | % Competition [11]: 93.5%
B1: 025c (antibody, V domains shown)
VH: EVQLQQSGAELVKPGASVKLSCTASGFNIKDYYMHWVKQRTEQGLEWIGRIDPEDGETKYAPKFQGKATITADTSSNTAYLQLSSLTSEDTAVYYCDRGLAYWGQGTLVTVSA
VL: QIVLTQSPAIMSASPGEKVTLTCSASSSVSSSYLYWYQQKPGSSPKLWIYSTSNLASGVPARFSGSGSGTSYSLTISSMEAEDAASYFCHQWSSYPYTFGGGTKLEIK
notes: also called chimeric antibody 025c; parental antibody of 025c
